Results published in patent US20220112526A1, “BIOSYNTHESIS OF VANILLIN FROM ISOEUGENOL” (Conagen Inc., priority 2019, published 2022).

Test: Enzyme assay in vitro: formation of vanillin from isoeugenol by purified isoeugenol monooxygenase (HPLC)
Type: biochemical
Conditions: 10 mM isoeugenol, pH 7.0, 30° C., 10 min
Procedure: The two purified isoeugenol monooxygenases were assayed by measuring the formation of vanillin in an enzymatic measuring mixture with isoeugenol as the substrate. The reaction mixture contained 10 mM isoeugenol, 100 mM potassium phosphate buffer (pH 7.0), 10% (v/v) ethanol and an appropriate amount of enzyme, in a total volume of 1 ml. The reaction was started, by adding isoeugenol as ethanol solution, carried out at 30° C. for 10 min with reciprocal shaking (160 strokes min^−1) and stopped with 1 ml of methanol. After centrifugation at 21,500, the supernatant was analyzed by HPLC for the determination of isoeugenol, vanillin, and vanillyl alcohol. CfIEM enzyme treated in boiling water for 5 minutes was used as the negative control.
As expected, no vanillin was produced with the negative control (lower panel).

B1: CfIEM: isoeugenol monooxygenase from the fungus Colletotrichum fioriniae PJ7, 539 amino acids (SEQ ID NO: 2) (protein, listed as Colletotrichum fioriniae)
chain: MAPGRTDDEAAEVATSSKTHAISNYGLTTKWPEAYDLAGSNLPCRLEGEIGDLVVLGEIPKEIDGTFYRVMTDPFVPPHPNNVPLDGDGNISAFRIKDGRVDMKMRYVETERYKLERKANKALFGLYRNPFTHHPCVRAAVDSTANTNVVLWADHFLALKEGGLPYSVDPQTLETIKYDPFGQIKAKTFTAHPKIDPYTNELVVFGYEARGLASLDIVIYALDSNGVKHDEQWIKSPWCAPIHDCAITPNWIILALWPFEASVDRMKKGGHHWAWDYDLPATFIVAPRRSSTKLPPGWQPGESRVYSWKNCMLIHTGGAWESEDGQTLFMETTRVHDNGFPFFPTNEGVYPAPDPKSDYVRWTFDLSQPTNSKVPDPEIILDMPAEFPRLDERFLSKSYNYVWINVYIHEDQNGDGHTIVEGLNGLAMHNSKTKETKCFNAGAESFCQEPIFIPRSDDAPEGDGWVMTMVERRGANRNEIVVLDTKDFEKPIAVIQLPFHVKAQVHGNWVDQRRLKAWQKLARDAVPEPISGQGALEPL
In the case of B1, the activity toward isoeugenol is reported as “high activity” and the “conversion of added isoeugenol to vanillin (HPLC)” value is reported as “Almost all isoeugenol added to the reaction mixture was converted to vanillin”.
